Experimental data: publication PMC3407115, “Characterization of Danio rerio Mn^2+-Dependent ADP-Ribose/CDP-Alcohol Diphosphatase, the Structural Prototype of the ADPRibase-Mn-Like Protein Family” (PLoS ONE, 2012)
Where a chain is given by its changes, count along the chain named. In names and notes the source's numbering stands.

B1: zebrafish ADPRibase-Mn (Danio rerio; M1S) (protein)
chain: SEDPVFTFGLIADVQYADIEDGENYLRTRRRYYRGSADLLRDAVLQWRRERVQCVVQLGDIIDGHNRRRDASDRALDTVMAELDACSVDVHHVWGNHEFYNFSRPSLLSSRLNSAQRTGTDTGSDLIGDDIYAYEFSPAPNFRFVLLDAYDLSVIGREEESEKHTHSWRILTQHNHNLQDLNLPPVSVGLEQRFVKFNGGFSEQQLQWLDAVLTLSDHKQERVLIFSHLPVHPCAADPICLAWNHEAVLSVLRSHQSVLCFIAGHDHDGGRCTDSSGAQHITLEGVIETPPHSHAFATAYLYEDRMVMKGRGRVEDLTITYS
notes: full-length ORF (BC054642 region 60-1028), N-terminal Met replaced by Ser; 8-His-MBP-TEV fusion expressed in E. coli BL21, tag cut with TEV protease
B2: zebrafish ADPRibase-Mn (Danio rerio; H97A/M1S) (protein)
chain: B1 chain with H97A
notes: as for B1

Tests used:
rat ADPRibase-Mn = target: T1, rat ADPRibase-Mn (Rattus norvegicus, UniProt Q5M886); test: hydrolysis assay; type: biochemical; settings: behaves as with the zebrafish enzyme; no number given
T1 construct: gene Adprm
T1 sequence (Q5M886 1-337): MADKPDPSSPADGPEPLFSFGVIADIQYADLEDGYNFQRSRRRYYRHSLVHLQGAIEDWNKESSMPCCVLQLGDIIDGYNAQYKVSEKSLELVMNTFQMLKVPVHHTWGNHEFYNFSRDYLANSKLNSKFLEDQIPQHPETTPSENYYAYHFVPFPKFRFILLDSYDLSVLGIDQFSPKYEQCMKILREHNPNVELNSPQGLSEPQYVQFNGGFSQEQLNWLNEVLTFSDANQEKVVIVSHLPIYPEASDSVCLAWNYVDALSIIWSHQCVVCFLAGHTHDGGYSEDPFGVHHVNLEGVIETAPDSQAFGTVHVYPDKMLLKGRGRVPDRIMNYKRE

[1] = substrate: N=c1c2ncn3c2ncn1[C@@H]1O[C@H](COP(=O)(O)OP(=O)(O)OC[C@H]2O[C@@H]3[C@H](O)[C@@H]2O)[C@@H](O)[C@H]1O; test: estimated from inhibition of ADP-ribose hydrolysis by cADPR (equation II); type: biochemical, Danio rerio; settings: competitive inhibition assumed, Ki taken as Km; 160 µM cADPR against 80 µM ADP-ribose
From the text: estimated from inhibition of ADP-ribose hydrolysis by cADPR (equation II) on zebrafish ADPRibase-Mn

[2] = substrate: Nc1ncnc2c1ncn2[C@@H]1O[C@H](COP(=O)(O)OP(=O)(O)O)[C@@H](O)[C@H]1O; test: phosphate release coupled to alkaline phosphatase; Michaelis-Menten fit; type: biochemical, Danio rerio; settings: 5 mM MnCl2, 50 mM Tris-HCl pH 7.5
From the text: (§1) phosphate release coupled to alkaline phosphatase; Michaelis-Menten fit on zebrafish ADPRibase-Mn

[3] = substrate: Nc1ccn([C@@H]2O[C@H](COP(=O)(O)OP(=O)(O)OC[C@H](O)CO)[C@@H](O)[C@H]2O)c(=O)n1; test: as above; type: biochemical, Danio rerio; settings: 5 mM MnCl2, 50 mM Tris-HCl pH 7.5
From the text: as §1

[4] = substrate: Nc1ncnc2c1ncn2[C@@H]1O[C@H](CO)[C@H]2OP(=O)(O)O[C@H]21; test: as above; type: biochemical, Danio rerio; settings: 5 mM MnCl2, 50 mM Tris-HCl pH 7.5, total activity (P-O2′ plus P-O3′ hydrolysis)
From the text: as §1

[5] = substrate: C[N+](C)(C)CCOP(=O)(O)OP(=O)([O-])OC[C@H]1O[C@@H](n2ccc(N)nc2=O)[C@H](O)[C@@H]1O; test: as above; type: biochemical, Danio rerio; settings: 5 mM MnCl2, 50 mM Tris-HCl pH 7.5
From the text: as §1

[6] = substrate: NCCOP(=O)(O)OP(=O)(O)OC[C@H]1O[C@@H](n2ccc(N)nc2=O)[C@H](O)[C@@H]1O; test: as above; type: biochemical, Danio rerio; settings: 5 mM MnCl2, 50 mM Tris-HCl pH 7.5
From the text: as §1

Molecule	hydrolysis assay (rat ADPRibase-Mn)	Km [1]	kcat [1]	kcat/Km [1]	Km [2]	kcat [2]	kcat/Km [2]	Km [3]	kcat [3]	kcat/Km [3]	Km [4]	kcat [4]	kcat/Km [4]	Km [5]	kcat [5]	kcat/Km [5]	Km [6]	kcat [6]	kcat/Km [6]
Nc1ncnc2c1ncn2[C@@H]1O[C@H](CO)[C@H]2OP(=O)(O)O[C@H]21 [2′,3′-cAMP]	we did it now and found them to behave as with the zebrafish enzyme																		
B1		0.19 ± 0.025 mM	0.005 s⁻¹	28 ± 3 M⁻¹ s⁻¹	2.65 ± 1.3 mM	1.8 s⁻¹	660 ± 70 M⁻¹ s⁻¹	2 ± 1.4 mM	95.6 s⁻¹	48000 ± 700 M⁻¹ s⁻¹	0.76 ± 0.05 mM	16.9 s⁻¹	22000 ± 3000 M⁻¹ s⁻¹	12 ± 3 mM	67.2 s⁻¹	5600 ± 800 M⁻¹ s⁻¹	3.9 ± 1.3 mM	125 s⁻¹	32000 ± 300 M⁻¹ s⁻¹
B2					19 ± 0.7 mM	0.2 s⁻¹	11 ± 5 M⁻¹ s⁻¹	6.3 ± 0.9 mM	0.8 s⁻¹	120 ± 30 M⁻¹ s⁻¹	1.7 ± 0.24 mM	29.7 s⁻¹	18000 ± 1000 M⁻¹ s⁻¹	43 ± 8 mM	0.8 s⁻¹	20 ± 5 M⁻¹ s⁻¹	31 ± 0.8 mM	2.1 s⁻¹	70 ± 20 M⁻¹ s⁻¹
